B1: TPR t1 (parent)
chain: GACCAAUCUGCCCUCAGAGCUCGAGAACAUCUUCGGAUGCAGAGGAGGCAGGCUUCGGUGGCGCGAUAGCGCCAACGUCCUCAACCUCCAAUGCAUCCCACCACAUGAUGAUGCCUGAAGAGCCUUGGUUUUUUG

Variants of: B1
Assay: polymerase ribozyme fitness, log enrichment relative to wild type (log ratio); higher = more active; in vitro selection for triplet polymerase activity
In short: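 Fitness is a logarithmic measure of how a genotype enriched relative to the wild type, with replicate averages weighted by inverse variance. The logarithm uses base 2, and enrichment came from Illumina sequencing of input and output libraries. Those libraries were PCR-built, transcribed mutants of each subunit of a heterodimeric triplet polymerase ribozyme, passed through one triplicate in vitro selection round that included frozen incubation at −7 °C, gel excision of extended constructs and streptavidin-bead capture. Genotypes were kept only if they had ≥10 input reads and ≥1 read per output.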

Going from G58C C97A A103U G120C to A68C C72U U78C C114G G120A C123U, the “polymerase ribozyme fitness (log ratio)” value falls from -6.84 to -7.64.

First: G36C G69U U132C
Second: C13U C79G A83G C89G
The “polymerase ribozyme fitness (log ratio)” value of the first is higher: -0.866 for the first, -4.49 for the second.

Going from A37U U54C G60U to C12G C20U, the “polymerase ribozyme fitness (log ratio)” value falls from 1.01 to -0.703.

Going from G10A G17U A18U C115U C123G U130A to C13G U96C C101A, the “polymerase ribozyme fitness (log ratio)” value rises from -4.27 to -3.35.

First: C70U A95U C124A
Second: C15A U132C
The “polymerase ribozyme fitness (log ratio)” value of the first is lower: -2.31 for the first, -1.46 for the second.

First: G61U U130C
Second: U7G G48A C70A C101A
The “polymerase ribozyme fitness (log ratio)” value of the first is higher: 0.445 for the first, -2.19 for the second.

Compared with G69U C124U, C13A C72A is lower in “polymerase ribozyme fitness (log ratio)” value: 2.41 for the first, -2.25 for the second.

Compared with G47U U87G G120A, A66U A83G C86U is lower in “polymerase ribozyme fitness (log ratio)” value: -1.99 for the first, -2.39 for the second.

First: G17A C62U
Second: C12U A37G A95G
The “polymerase ribozyme fitness (log ratio)” value of the first is lower: -3.04 for the first, -0.754 for the second.

Going from C11A U30C G63U C64U U81A C104G A111U A119G U132C to G36C G42C G60C U130A, the “polymerase ribozyme fitness (log ratio)” value rises from -6.95 to -3.88.

Compared with G63U C94G A121U, C72U G113U is lower in “polymerase ribozyme fitness (log ratio)” value: 0.0576 for the first, -2.87 for the second.

Compared with A37C G60U U96A G110C U134A, G23U G48U C62A C64A C86U C99A G117U is lower in “polymerase ribozyme fitness (log ratio)” value: -2.04 for the first, -7.32 for the second.

First: U14A C70U
Second: G57U G60C G61C G113A
The “polymerase ribozyme fitness (log ratio)” value of the first is higher: -1.67 for the first, -4.44 for the second.

Going from C3U C8A C20U C53U G58A G77A A90G C101U to C4G G10U G63U G69U G120A, the “polymerase ribozyme fitness (log ratio)” value rises from -3.06 to 0.883.

First: C53A C89U U126C
Second: G10U A27C G44C G69U C88G G93A C114A
The “polymerase ribozyme fitness (log ratio)” value of the first is higher: -1.37 for the first, -6.93 for the second.

Going from C8A A41C G44U C62U C99U A111U G127A to A29G G60C U106A U109C G117A G127A, the “polymerase ribozyme fitness (log ratio)” value rises from -7.45 to -5.43.

Compared with A41U C70G G120U, C97A C123U is higher in “polymerase ribozyme fitness (log ratio)” value: -6.06 for the first, -2.71 for the second.

First: U81A A95C A121C
Second: G42A C72A C123A
The “polymerase ribozyme fitness (log ratio)” value of the first is higher: 0.395 for the first, -1.85 for the second.

First: C53A G69U C88G U112A G122A U133C
Second: C34G C73G U116A A121U
The “polymerase ribozyme fitness (log ratio)” value of the first is higher: 1.96 for the first, -5.9 for the second.

Going from U7A U21C C70U G71C A90G to C53G A91U, the “polymerase ribozyme fitness (log ratio)” value rises from -2.31 to -1.68.

First: U38A G57U G58U
Second: G63U U116A
The “polymerase ribozyme fitness (log ratio)” value of the first is higher: -1.64 for the first, -3.57 for the second.

C80A G135U and C15G C49U U106A are within 0.2 log units of each other in “polymerase ribozyme fitness (log ratio)” value: -3.76 for the first, -3.74 for the second.

First: C80A C94U
Second: G69U G113A
The “polymerase ribozyme fitness (log ratio)” value of the first is lower: -2.69 for the first, -0.285 for the second.

C12U U32C C56G and G48A A84G are within 0.2 log units of each other in “polymerase ribozyme fitness (log ratio)” value: -0.144 for the first, -0.314 for the second.

Going from G69U U81C G120C G122A G128A to U55G C76A, the “polymerase ribozyme fitness (log ratio)” value rises from -3.32 to -0.0105.

C8A G60A U78A U92C and C8G A16C C62A G71A G120C are within 0.2 log units of each other in “polymerase ribozyme fitness (log ratio)” value: -1.3 for the first, -1.27 for the second.

Going from A37U G47C C56G C104A to G57A G58A A83U, the “polymerase ribozyme fitness (log ratio)” value rises from -3.66 to -0.302.

G61C C114U G127U and C22G G35C are within 0.2 log units of each other in “polymerase ribozyme fitness (log ratio)” value: -5.3 for the first, -5.43 for the second.

Going from U14A G36C G47A to C4G G63U C123A, the “polymerase ribozyme fitness (log ratio)” value rises from -4.55 to -1.09.

First: C53A U55A G63A G71U G120C
Second: G65C C85U A108U C123G
The “polymerase ribozyme fitness (log ratio)” value of the first is higher: -4.29 for the first, -7.43 for the second.

First: C15A G47C U133C
Second: A100U G120U
The “polymerase ribozyme fitness (log ratio)” value of the first is lower: -3.12 for the first, -1.23 for the second.

Going from G47C to G52A C56U U59G C114U C124A G135C, the “polymerase ribozyme fitness (log ratio)” value rises from -1.82 to -0.522.

Compared with C70G U78C G113A A121G, U9G A83C C85U A121C U130C is higher in “polymerase ribozyme fitness (log ratio)” value: -2.79 for the first, 1.97 for the second.

Going from C15U G36C A50C C72U C124G to G10A G35A, the “polymerase ribozyme fitness (log ratio)” value falls from -0.154 to -3.71.

Compared with C8U G45A C72G, G51C G61A G120A U132A is lower in “polymerase ribozyme fitness (log ratio)” value: -0.658 for the first, -2.03 for the second.

Compared with G63A U130C, C89G C104U is lower in “polymerase ribozyme fitness (log ratio)” value: -0.399 for the first, -0.672 for the second.

Compared with C11A G42U, G39U G44A is higher in “polymerase ribozyme fitness (log ratio)” value: -2.71 for the first, -1.38 for the second.

Compared with C80U C88U G127C, C3U C4G is lower in “polymerase ribozyme fitness (log ratio)” value: -1.46 for the first, -2.81 for the second.

Compared with A37U U126A, U30C C56G C70U C79A C89U C98U C101A G110C is lower in “polymerase ribozyme fitness (log ratio)” value: -2.55 for the first, -6.87 for the second.

Compared with G36A G117U, C72U C88A is higher in “polymerase ribozyme fitness (log ratio)” value: -4.6 for the first, 0.024 for the second.

Compared with C15A U59A U126A, A5U C89G is higher in “polymerase ribozyme fitness (log ratio)” value: -4.53 for the first, -1.4 for the second.

First: C12A G36C G60A
Second: A37C G39C G63A
The “polymerase ribozyme fitness (log ratio)” value of the first is higher: -1.66 for the first, -4.27 for the second.

From the RNAGym collection of RNA variant scans (doi:10.1073/pnas.2313332121)
